Laboratory results from paper PMC11059244.

Settings: phosphorylation at S405

Substance	expression_or_secretion	other	degradation_or_half_life
YAP: ponatinib (MAP3K3 inhibitor)	decreases	–	–
YAP: S405D phosphomimetic	–	decreases	–
YAP: S405A	–	increases	decreases
